Target: the molecule itself
Assay: Western blot of conditioned media, reducing against non-reducing SDS-PAGE
Method: Samples were combined with 2× SDS sample buffer with β-mercapatoethanol and boiled for 2 minutes. After boiling, the samples were loaded onto either a 4-20% gradient gel or 6% SDS gel. Gels were then transferred to nitrocellulose using an Invitrogen blotting apparatus (Invitrogen, Carlsbad, Calif.) and transfer buffer as provided by Invitrogen (Invitrogen, Carlsbad, Calif.). Gels were transferred for 2 hours at 30V under constant current. Nitrocellulose blots were blocked in 5% non-fat dry milk for 1 hour at room temperature. The blots were incubated with 0.5 μg/mL peptide polyclonal antibody overnight at 4° C. After incubation with the primary antibody, the blots were washed 3 times for 10 minutes each in washing buffer (1% Triton×100 (v/v), 0.1% SDS (w/v) in PBS, calcium and magnesium free) and then incubated for 30 minutes with mouse anti rabbit IgG conjugated to horseradish peroxidase (Santa Cruz Biotech, Santa Cruz, Calif.). The blots were washed 3 times for 10 minutes each in wash buffer and developed with the chemiluminescence reagent, ECL. (Amersham, Piscataway, N.J.). The blots were exposed to Kodak film and developed using a film developer.
The conditioned media from both COS and HEK293 transfectants were analyzed by Western blot under reducing and non-reducing conditions to assess whether CLCA1 exists as a multimer in the secreted milieu. […]

B1: human CLCA1 (Calcium Activated Chloride Channel 1) (other)
chain: NSLIQLNNNGYEGIVVAIDPNVPEDETLIQQIKDMVTQASLYLFEATGKRFYFKNVAILIPETWKTKADYVRPKLETYKNADVLVAESTPPGNDEPYTEQMGNCGEKGERIHLTPDFIAGKKLAEYGPQGRAFVHEWAHLRWGVFDEYNNDEKFYLSNGRIQAVRCSAGITGTNVVKKCQGGSCYTKRCTFNKVTGLYEKGCEFVLQSRQTEKASIMFAQHVDSIVEFCTEQNHNKEAPNKQNQKCNLRSTWEVIRDSEDFKKTTPMTTQPPNPTFSLLQIGQRIVCLVLDKSGSMATGNRLNRLNQAGQLFLLQTVELGSWVGMVTFDSAAHVQSELIQINSGSDRDTLAKRLPAAASGGTSICSGLRSAFTVIRKKYPTDGSEIVLLTDGEDNTISGCFNEVKQSGAIIHTVALGPSAAQELEELSKMTGGLQTYASDQVQNNGLIDAFGALSSGNGAVSQRSIQLESKGLTLQNSQWMNGTVIVDSTVGKDTLFLITWTTQPPQILLWDPSGQKQGGFVVDKNTKMAYLQIPGIAKVGTWKYSLQASSQTLTLTVTSRASNATLPPITVTSKTNKDTSKFPSPLVVYANIRQGASPILRASVTALIESVNGKTVTLELLDNGAGADATKDDGVYSRYFTTYDTNGRYSVKVRALGGVNAARRRVIPQQSGALYIPGWIENDEIQWNPPRPEINKDDVQHKQVCFSRTSSGGSFVASDVPNAPIPDLFPPGQITDLKAEIHGGSLINLTWTAPGDDYDHGTAHKYIIRISTSILDLRDKFNESLQVNTTALIPKEANSEEVFLFKPENITFENGTDLFIAIQAVDKVDLKSEISNIARVSLFIPPQTPPETPSPDETSAPCPNIHINSTIPGIHILKIMWKWIGELQLSIA
notes: 914 amino acids; also called hCLCA1; soluble CLCA1
binding result: binds

Reference: patent US20040265314A1 (Pfizer, published 2004)
